Assay results: IntAct's records for PubMed 17435768

B1: Heterogeneous nuclear ribonucleoprotein M (Homo sapiens), P52272 (parent)
chain: MAAGVEAAAEVAATEIKMEEESGAPGVPSGNGAPGPKGEGERPAQNEKRKEKNIKRGGNRFEPYANPTKRYRAFITNIPFDVKWQSLKDLVKEKVGEVTYVELLMDAEGKSRGCAVVEFKMEESMKKAAEVLNKHSLSGRPLKVKEDPDGEHARRAMQKVMATTGGMGMGPGGPGMITIPPSILNNPNIPNEIIHALQAGRLGSTVFVANLDYKVGWKKLKEVFSMAGVVVRADILEDKDGKSRGIGTVTFEQSIEAVQAISMFNGQLLFDRPMHVKMDERALPKGDFFPPERPQQLPHGLGGIGMGLGPGGQPIDANHLNKGIGMGNIGPAGMGMEGIGFGINKMGGMEGPFGGGMENMGRFGSGMNMGRINEILSNALKRGEIIAKQGGGGGGGSVPGIERMGPGIDRLGGAGMERMGAGLGHGMDRVGSEIERMGLVMDRMGSVERMGSGIERMGPLGLDHMASSIERMGQTMERIGSGVERMGAGMGFGLERMAAPIDRVGQTIERMGSGVERMGPAIERMGLSMERMVPAGMGAGLERMGPVMDRMATGLERMGANNLERMGLERMGANSLERMGLERMGANSLERMGPAMGPALGAGIERMGLAMGGGGGASFDRAIEMERGNFGGSFAGSFGGAGGHAPGVARKACQIFVRNLPFDFTWKMLKDKFNECGHVLYADIKMENGKSKGCGVVKFESPEVAERACRMMNGMKLSGREIDVRIDRNA
B2: Heterogeneous nuclear ribonucleoprotein A1 (Homo sapiens), P09651-2 (parent)
chain: MSKSESPKEPEQLRKLFIGGLSFETTDESLRSHFEQWGTLTDCVVMRDPNTKRSRGFGFVTYATVEEVDAAMNARPHKVDGRVVEPKRAVSREDSQRPGAHLTVKKIFVGGIKEDTEEHHLRDYFEQYGKIEVIEIMTDRGSGKKRGFAFVTFDDHDSVDKIVIQKYHTVNGHNCEVRKALSKQEMASASSSQRGRSGSGNFGGGRGGGFGGNDNFGRGGNFSGRGGFGGSRGGGGYGGSGDGYNGFGNDGSNFGGGGSYNDFGNYNNQSSNFGPMKGGNFGGRSSGPYGGGGQYFAKPRNQGGYGGSSSSSSYGSGRRF

Variants of: B1
Conditions: with tnpo1_human TNPO1, Q92973
tnpo1_human TNPO1, Q92973, sequence (Q92973 whole entry): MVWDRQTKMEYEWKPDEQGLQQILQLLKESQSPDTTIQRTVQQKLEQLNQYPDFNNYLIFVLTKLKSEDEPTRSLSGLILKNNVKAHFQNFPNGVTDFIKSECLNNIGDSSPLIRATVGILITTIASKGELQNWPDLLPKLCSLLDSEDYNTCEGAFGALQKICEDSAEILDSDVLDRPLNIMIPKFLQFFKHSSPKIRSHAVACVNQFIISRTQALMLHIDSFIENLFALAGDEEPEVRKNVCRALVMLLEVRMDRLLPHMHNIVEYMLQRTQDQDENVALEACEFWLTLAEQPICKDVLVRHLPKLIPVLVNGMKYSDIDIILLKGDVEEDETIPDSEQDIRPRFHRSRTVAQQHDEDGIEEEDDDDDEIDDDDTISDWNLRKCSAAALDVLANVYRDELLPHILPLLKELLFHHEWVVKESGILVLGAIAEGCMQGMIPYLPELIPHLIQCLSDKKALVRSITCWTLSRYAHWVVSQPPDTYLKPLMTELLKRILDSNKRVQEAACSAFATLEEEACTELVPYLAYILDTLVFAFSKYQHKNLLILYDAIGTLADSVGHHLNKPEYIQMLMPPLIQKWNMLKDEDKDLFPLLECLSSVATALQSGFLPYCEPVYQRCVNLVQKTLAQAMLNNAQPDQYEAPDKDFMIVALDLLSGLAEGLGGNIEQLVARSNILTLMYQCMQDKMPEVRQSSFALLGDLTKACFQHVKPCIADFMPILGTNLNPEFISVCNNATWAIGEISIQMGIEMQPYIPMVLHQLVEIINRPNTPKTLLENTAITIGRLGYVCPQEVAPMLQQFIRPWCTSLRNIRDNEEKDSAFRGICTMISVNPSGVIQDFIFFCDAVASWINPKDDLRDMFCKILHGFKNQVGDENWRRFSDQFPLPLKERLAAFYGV

effect of a mutation on the interaction	Variant
decreasing interaction strength	P63A;Y64A

Variants of: B2
Conditions: with tnpo1_human TNPO1, Q92973

effect of a mutation on the interaction	Variant
decreasing interaction	G274A
